According to patent US20170174769A1 (Regeneron, published 2017):
Numbering of substitutions follows the chain as printed. In names and notes the source's numbering stands.

Assays:
[1] = molecular target: T1, extracellular domain of human KLB expressed with C-terminal HA and hexahistidine tags (human, UniProt Q86Z14 1-996); experiment: SPR, mAb captured, 25 C
T1 construct: also called hKLB-HA-6His; hKLB-HA-6his
T1 sequence: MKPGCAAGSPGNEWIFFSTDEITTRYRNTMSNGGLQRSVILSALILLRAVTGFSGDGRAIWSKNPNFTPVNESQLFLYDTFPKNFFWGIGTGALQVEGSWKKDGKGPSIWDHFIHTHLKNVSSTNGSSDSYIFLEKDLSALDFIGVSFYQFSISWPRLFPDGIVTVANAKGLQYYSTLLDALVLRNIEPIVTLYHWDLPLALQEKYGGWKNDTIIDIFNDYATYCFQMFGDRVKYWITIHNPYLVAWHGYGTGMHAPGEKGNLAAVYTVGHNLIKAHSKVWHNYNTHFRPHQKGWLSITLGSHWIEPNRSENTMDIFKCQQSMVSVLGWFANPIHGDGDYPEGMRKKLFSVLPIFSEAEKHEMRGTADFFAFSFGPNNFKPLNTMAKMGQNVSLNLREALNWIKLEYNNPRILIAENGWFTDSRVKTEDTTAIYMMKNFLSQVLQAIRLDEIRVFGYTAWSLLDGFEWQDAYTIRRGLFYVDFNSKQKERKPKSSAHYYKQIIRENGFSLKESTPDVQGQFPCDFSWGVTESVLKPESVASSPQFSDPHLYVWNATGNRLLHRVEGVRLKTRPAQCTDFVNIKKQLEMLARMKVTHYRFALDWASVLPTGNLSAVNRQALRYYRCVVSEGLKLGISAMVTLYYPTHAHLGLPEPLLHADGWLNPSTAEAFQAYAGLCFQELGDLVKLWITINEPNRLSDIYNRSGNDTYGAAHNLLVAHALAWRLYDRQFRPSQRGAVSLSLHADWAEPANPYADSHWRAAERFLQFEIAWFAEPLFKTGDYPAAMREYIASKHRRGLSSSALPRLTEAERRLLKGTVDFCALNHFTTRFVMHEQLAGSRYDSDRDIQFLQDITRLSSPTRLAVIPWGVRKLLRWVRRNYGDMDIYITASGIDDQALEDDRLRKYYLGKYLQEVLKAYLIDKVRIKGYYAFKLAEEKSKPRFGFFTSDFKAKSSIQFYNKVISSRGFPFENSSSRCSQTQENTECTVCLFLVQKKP
Protocol: (§1) Equilibrium dissociation constants (KD values) for human KLB or human FGFR1c binding to purified anti-KLB/FGFR1c monoclonal antibodies were determined using a real-time surface plasmon resonance biosensor using a Biacore T-200 or 4000 instrument. The Biacore sensor surface was derivatized by amine coupling with either a polyclonal rabbit anti-mouse antibody (GE, # BR-1008-38) or with a monoclonal mouse anti-human Fc antibody (GE, # BR-1008-39) to capture anti-KLB/FGFR1c monoclonal antibodies expressed with either a mouse Fc or a human Fc, respectively. All Biacore binding studies were performed in a buffer composed of 0.01M HEPES pH 7.4, 0.15M NaCl, 3mM EDTA, 0.05% v/v Surfactant P20 (HBST running buffer). […] Association of hKLB-HA-6His or hFGFR1c-V5-6His to the captured monoclonal antibody was monitored for 3.5 to 4 minutes and the dissociation of hKLB-HA-6His or hFGFR1c-V5-6His in HBST running buffer was monitored for 8-12 minutes. All the binding kinetics experiments were performed at 25° C. or 37° C. Kinetic association (kₐ) and dissociation (kd) rate constants were determined by fitting the real-time sensorgrams to a 1:1 binding model using Scrubber 2.0c curve fitting software. Binding dissociation equilibrium constants (KD) and dissociative half-lives (t½) were calculated from the kinetic rate constants as: […]

[2] = molecular target: T2, extracellular domain of human FGFR1c expressed with C-terminal V5 and hexahistidine tags (human, UniProt P11362 22-376); experiment: SPR, mAb captured, 25 C
T2 construct: also called hFGFR1c-V5-6His
T2 sequence: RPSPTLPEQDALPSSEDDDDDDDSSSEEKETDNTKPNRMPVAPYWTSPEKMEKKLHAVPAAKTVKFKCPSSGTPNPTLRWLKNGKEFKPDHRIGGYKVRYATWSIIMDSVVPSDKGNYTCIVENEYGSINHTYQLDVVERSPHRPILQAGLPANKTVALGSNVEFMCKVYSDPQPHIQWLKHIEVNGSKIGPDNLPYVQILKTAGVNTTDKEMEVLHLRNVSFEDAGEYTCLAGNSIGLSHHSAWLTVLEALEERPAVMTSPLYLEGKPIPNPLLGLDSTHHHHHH
Protocol: as §1

[3] = molecular target: mouse KLB and mouse FGFR1c co-expressed on HEK293/mKLB/mFGFR1c/SRE-Luc cells (mouse); experiment: cell-based or functional assay
[4] = molecular target: human KLB and human FGFR1c co-expressed on HEK293/hKLB/hFGFR1c/SRE-luc cells (human, UniProt Q86Z14 1-1044; P11362 22-822); experiment: cell-based or functional assay
human KLB and human FGFR1c co-expressed on HEK293/hKLB/hFGFR1c/SRE-luc cells, sequence (P11362 other isoform, or with tags, fused parts or gaps limits assumed): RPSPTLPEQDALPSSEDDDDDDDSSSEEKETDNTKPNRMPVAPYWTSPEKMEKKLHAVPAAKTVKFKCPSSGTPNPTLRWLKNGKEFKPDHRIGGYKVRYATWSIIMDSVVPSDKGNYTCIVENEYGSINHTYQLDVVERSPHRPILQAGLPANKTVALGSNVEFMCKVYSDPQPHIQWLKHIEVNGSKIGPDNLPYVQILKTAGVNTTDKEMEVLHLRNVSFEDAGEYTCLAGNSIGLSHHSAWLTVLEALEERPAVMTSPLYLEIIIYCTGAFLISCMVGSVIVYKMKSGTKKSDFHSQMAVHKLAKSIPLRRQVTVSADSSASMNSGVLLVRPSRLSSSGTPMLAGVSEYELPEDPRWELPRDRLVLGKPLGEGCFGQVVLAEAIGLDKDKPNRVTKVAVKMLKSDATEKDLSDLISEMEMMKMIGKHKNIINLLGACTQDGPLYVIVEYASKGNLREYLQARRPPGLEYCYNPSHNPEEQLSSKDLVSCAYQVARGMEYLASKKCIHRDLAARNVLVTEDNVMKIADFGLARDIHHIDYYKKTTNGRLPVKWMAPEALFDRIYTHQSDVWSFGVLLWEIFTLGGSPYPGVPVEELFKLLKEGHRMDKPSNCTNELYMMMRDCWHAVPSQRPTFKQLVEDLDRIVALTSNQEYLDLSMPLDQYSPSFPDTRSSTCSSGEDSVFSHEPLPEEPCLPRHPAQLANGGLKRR

B1: H2aM8098N (antibody, V domains shown)
VH: QLQLQESGPGLVKPSETLSLTCTVSGGSISSSNYYWDWIRQTPEKGLEWIGSIHYSGTSYYNPSLKSRVTISVDTSKNQFSLKLRSVTAADAAVYYCARQTSVYWYFDIWGHGTLVTVST
VL: EIVLTQSPGTLSLSPGEGATLSCRASQSVRNNYLAWYQQKPGQAPRLLIYGASSRAIGIPDRFSGSGSGTDFTLTISRLEPKDFVVYYCQQYGGSLFTFGPGTKVDIK
notes: mouse IgG2 Fc (H2aM prefix)
[1]
  20 nM hKLB-HA-6His Bind (RU): 2.7 RU
[2]
  180 nM hFGFR1c-V5-6His Bind (RU): -0.9 RU

B2: H4H8881P (antibody, V domains shown)
VH: QVQLVQSGAEVKKPGASVKVSCKASGYTFTSYVIHWVRQAPGQRLEWMGWSNAANGDTKYSQEFQDRVTFTRDTSASTAYMELSSLRSEDMAVYYCARWNWNYGAFDIWGQGTMVTVSS
VL: DIQMTQSPSSLSASVGDRVTITCQASQDINNYLHWYQQKSGKAPNLLIYDASILETGVPSRFSGSGSGTDFTFTISSLQPEDIATYYCQQYDNLPYTFGQGTKLEIK
notes: human IgG4 Fc (H4H prefix)
[1]
  20 nM hKLB-HA-6His Bind (RU): 92.7 RU
  Kd: 0.124 nM
  koff: 0.000178 s⁻¹
  kon: 1.44e+06 M⁻¹ s⁻¹
  t1/2: 65 min
[2]
  180 nM hFGFR1c-V5-6His Bind (RU): 0.3 RU
  binding result: no binding (tested: 180 nM)

B3: H4H8880P (antibody, V domains shown)
VH: EVQLVESGGGVVQPGGSLRLSCAASGFTFSLYAMSWVRQAPGKGLEWVSAISGSAHGAYYADSVKGRFTISRDNSKNSLYLQMNSLRAEDTAIYYCAKDLVIAVAGTFDYWGQGTLVTVSS
VL: DIQMTQSPSSLSASVGDRVTITCRASQIISTYLNWYQQKPGKAPKILIYTASSLKSGVPSRFSGSGSGTDFTLTISSLQPEDFATYYCQQTYSSPRFTFGPGTKVDIK
notes: human IgG4 Fc (H4H prefix)
[1]
  20 nM hKLB-HA-6His Bind (RU): 68.1 RU
  Kd: 0.64 nM
  koff: 0.000287 s⁻¹
  kon: 448000 M⁻¹ s⁻¹
  t1/2: 40.3 min
[2]
  180 nM hFGFR1c-V5-6His Bind (RU): 0.4 RU
  binding result: no binding (tested: 180 nM)
[3]
  Maximum Activation (%) without ligand: 2%
  Maximum Inhibition (%) of 0.8 nM mFGF21: 16%

B4: H1H8899P (antibody, V domains shown)
VH: EVQLVESGGGLVQPGGSLRLSCAASGFTFSSHWMSWVRQAPGKGLEWVANIKQDGSEKYYVDSVKGRFTISRDNAKNSLYLQISSLRAEDTAVYYCASNWNFLFDFWGQGTLVTVSS
VL: not shown
[1]
  20 nM hKLB-HA-6His Bind (RU): 0.5 RU
[2]
  180 nM hFGFR1c-V5-6His Bind (RU): 2.4 RU
  binding result: no binding (tested: 180 nM)

B5: H2aM8091N (antibody, V domains shown)
VH: QVQLVQSGADMKKPGASVKVSCKASGYTFTTYGINWVRQAPGQGLEWMGWISAYSGITNYAQSFQGRVTMTTDTSTSTAYMELRSLRSDDTAVYYCARGGYNWATGDYFDYWGQGTLVTVSS
VL: DIQMTQSPSTLSASIGDRVTITCRASQSISSWLAWYQQKPGKAPKFLIYKASSLASGVPSRFSGSGSGTEFTLTISSLQPDDFATYYCQQYDSYSPYTFGQGTKVEIK
notes: mouse IgG2 Fc (H2aM prefix); also called H2M8091N
[1]
  20 nM hKLB-HA-6His Bind (RU): -2 RU
[2]
  180 nM hFGFR1c-V5-6His Bind (RU): -0.8 RU
[3]
  Maximum Inhibition (%) of 0.8 nM mFGF21: 90%

B6: H4H8871P (antibody, V domains shown)
VH: QVQLQESGPGLVKPSETLSLTCTVSGASISSYYWSWIRQPPGKGLEWIGYIYSSGIIKYNPSLKSRVTISADTSKNQFSLKLSSVTAADTAVYYCARHGIFGVMEYFQRWGQGTLVTVSS
VL: DIQMTQSPSSLSASIGDRVTITCQASQDIGNFLNWYHQKPGKAPTLLIYDASNMETGVPSRFRGSGSGTYFTFIISSLQPEDVATYYCQQYDNLPLTFGGGTKVEIK
notes: human IgG4 Fc (H4H prefix)
[1]
  20 nM hKLB-HA-6His Bind (RU): -0.7 RU
[2]
  180 nM hFGFR1c-V5-6His Bind (RU): 0.4 RU

B7: H4H8878P (antibody, V domains shown)
VH: QVQLVESGGGVVQPGRSLRLSCAASGFTLNTYGMHWIRQTPGKGLEWVSLISYDETKEYYVDSVKGRFTISRDNSKNTLYLQMNSVRVEDTAVYYCAKPLTGSTDYYYGLDVWGQGTTVTVSS
VL: DIQMTQSPSYVSASVGDRVIITCRASQDISSWLAWYQQKPGKAPKLLIYVTSSLESGVPSRFSGSGSGTDFTLTISGLQPEDFATYYCQQVKSFPPTFGPGTKVDIK
notes: human IgG4 Fc (H4H prefix)
[1]
  20 nM hKLB-HA-6His Bind (RU): 28.4 RU
  Kd: 1.25 nM
  koff: 0.000213 s⁻¹
  kon: 170000 M⁻¹ s⁻¹
  t1/2: 54.3 min
[2]
  180 nM hFGFR1c-V5-6His Bind (RU): 0.4 RU
  binding result: no binding (tested: 180 nM)

B8: H4H8859P (antibody, V domains shown)
VH: EVQLVESGGSVVRPGGSLRLSCAASGFTFDVYGMSWVRQAPGKGLEWVSGINWIGGSTGYADSVKGRFTISRDNAKNSLYLQMNSLRAEDTALYYCTREEDYWGQGTLVTVSS
VL: DVVMTQSPLSLAVTLGQPASISCRSSQSLVYSDGNTYLNWFQQRPGQSPRRLFYKVSNRDSGVPDRFSGSGSGTDFTLKISRVEAEDVGIYYCMQGIKWPLTFGGGTKVEIK
notes: human IgG4 Fc (H4H prefix)
[1]
  20 nM hKLB-HA-6His Bind (RU): -0.8 RU
[2]
  180 nM hFGFR1c-V5-6His Bind (RU): 4.9 RU
  Kd: 352 nM
  koff: 0.0536 s⁻¹
  kon: 152000 M⁻¹ s⁻¹
  t1/2: 0.22 min

B9: H4H8870P (antibody, V domains shown)
VH: B8 VH with S10G, T28K, A40L, N52S, I54T, T58S, A75G, N77K
VL: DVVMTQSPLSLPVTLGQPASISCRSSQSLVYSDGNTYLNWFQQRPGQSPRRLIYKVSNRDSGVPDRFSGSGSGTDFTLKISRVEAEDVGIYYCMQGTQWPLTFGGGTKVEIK
notes: human IgG4 Fc (H4H prefix)
[1]
  20 nM hKLB-HA-6His Bind (RU): -0.6 RU
[2]
  180 nM hFGFR1c-V5-6His Bind (RU): 6.9 RU
  Kd: 197 nM
  koff: 0.0432 s⁻¹
  kon: 219000 M⁻¹ s⁻¹
  t1/2: 0.27 min
[4]
  Maximum Inhibition (%): 10%

B10: H1H8897P (antibody, V domains shown)
VH: QVQLVESGGGLVKPGGSLRLSCAAAGFTFSDYYMSWIRQAPGQGLEWVSYISPSGSTTYYADSVQGRFTISRDNAKSSLYLQMNSLRAEDTAVYYCARTGIQLWSVYFDYWGQGTLVTVSS
VL: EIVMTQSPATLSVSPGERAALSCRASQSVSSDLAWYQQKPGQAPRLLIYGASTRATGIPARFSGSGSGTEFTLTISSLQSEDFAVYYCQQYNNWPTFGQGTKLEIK
notes: H1H Fc prefix (human Fc)
[1]
  20 nM hKLB-HA-6His Bind (RU): -0.4 RU
[2]
  180 nM hFGFR1c-V5-6His Bind (RU): 0.9 RU
  binding result: no binding (tested: 180 nM)
[3]
  Maximum Activation (%) without ligand: 3%
  Maximum Inhibition (%) of 0.8 nM mFGF21: 50%

B11: H1H8898P (antibody, V domains shown)
VH: B10 VH with A25S, T28I, Q43K, E46D, V48I, T58I, Q65K, S77N, E89D
VL: EIVMTQSPATLSVSPGERATLSCRASQSVGSNLAWYQQKPGQAPRLLIYGASTRANGIPARFSGSGSGTEFTLTISGLQSEDFAVYYCQQYNNWPTFGQGTKLEIK
notes: H1H Fc prefix (human Fc)
[1]
  20 nM hKLB-HA-6His Bind (RU): -0.2 RU
[2]
  180 nM hFGFR1c-V5-6His Bind (RU): 2.9 RU
  binding result: no binding (tested: 180 nM)
[3]
  Maximum Activation (%) without ligand: 2%
  Maximum Inhibition (%) of 0.8 nM mFGF21: 29%
